Test: soluble on expression in E. coli; label from the status in PepcDB or PDB records

Sequence | soluble on expression in E. coli
MIRSTVLILASFALAVNCYECMNNTVVINAPSDISKPVFYPDGWDGQSSTPQISENQQCVMTINVPTGYYATVTFYKHFTEPGGYLYFPSRKIELLQNDDYNPYIFPSPMVKINIGTDNRNDVMNQFGFKVVYSKYPTLEKNIINIDLGSPPVAAKPSEKLTTFVGDRNSMMSLMGFTMADNSKNYLLRQTAIFGGDSTDSTYIGSLSQILNSQQILTTYGNKISVYTFGLDKLIDYPLFMGQNQVDTMGLLKYNGANCPSTGNCNVTLNGNWGAHVVVVTSYDGPETIKSFDSFPDTGVLNVYENNVSNTTCIATLNKFNYLQQLPLQVNGNMKFYELRAGGVYNMVVTRDTSRASRHQI | not soluble
MKIIGFACQWCAYQAADLAGSLKMKYPESIRLLRVPCSGRVNAEFILKALLSGADGVFVAGCPISECHYRSGNRIAKTKVALLKRLLPEFGLESGRVEFLQVSSADARKFVEFAKEFDERIRKLGPNPLRRDER | not soluble
MEFKEYKGKNVDEAITNACIDLGIEAAKLEYEVIEKGSNGFLGIGSKPAIIKAKKNQSVEDIAREFLNKVFTAMELTVKIDIKIVENEKENIVNINIIGEDMGILIGKRGQTLDSLQYLVSLVINKECEKFNRVKLDTENYRERRKATLENLARNISLKVKRIKKPVALEPMNPYERRIIHSALQNDKFCTTKSEGDEPYRHVVVMLKKDAR | not soluble
MGHHHHHHGGHMSLNSTSSPTIAVTAATGKLGQLVVSSLLERGVPADHIVAIVRNPAKAQGLFAPGVQIRQADYNSPEGWDRALAGVQRLLLISSSDLNDRADQHRTVIEAASAAGVELLAYTSLLKADTARMSLAADHQATEKLLTESGVPFVLLRNGWYLENYDLAQALQTGSVLGAAGTGRISAASRKDLAEAAAAALTRDGQAGKVYELAGDEAFSLSELAAELSKQSGKDVQYRNFAPEDYQRTLEGFGLPAPVAQMLVSSDEGVARGELELPNSDLRELIGRPSTSLKEAVASQLAEGGS | soluble
MGSDKIHHHHHHMNKKILIIDDNKMLGKLLAKKIQMTLDYEVDIAFGFAEAKELMNNDYFLAFVDLCLPDAPNGEVVDYVIEKKIPAIVLTASGDKATKEKFMDKDILDYIFKESETCIDEIISSIVKLNQYAKTKVIVAMSKLPERNEIKKILTQRQFNVLAAAHGEEAMSYLNDNNDVKLIIADVNMPVISGFELLTQVRERFSDDELGVILLGDHNDSFEANSFKNGVNEYLFKPLSKESFNCRLDRCLSYMDDKKFLSTYNVLDPVSGVKNYNALIDGIDDYFNEIATKDEEFAFAFLDIDNLQMINDEYGREVGDEVIKICANEIVNETKGRDLVGRYSAEKICILLKNISQERAIKIFSRIRVNIKKAGVLVNLDEVFFTASIGVVFGKSGDKIDSLADKASKILSQAKDNGKDRVEVCS | not soluble
KVLGDGSYLFEGKTSLSDVRHYLDLPENAFGELGDEVDTLSGLFLEIKQELPHVGDTAVYEPFRFQVTQMDKRRIIEIKIFPFERTWEVE | not soluble
METAPDEAPTEFLEPGEEIVENVIEEEVVHEEDVEHHEEDGEMIEVQHEEVLEEIVEEDGMMFDTDGRVIEYSDVMVYEEGTEVIEEYVEVEDLGDGRYAYVMTDDIGHRRLLKPHEVEAVKKMPGMMEEEVVMDDEKAPNTSYAAAQKRGRFPPQARSSLSPQKPRAAGAYMGPEAYYQQPKRMTHMAKVDVEKYSPVTPVNRRPLMDNAIFKSKLPRKSAPWQEETAANGGPQSTSLIRSPSPMLKEPLFDDNEIRFKCAECGDGFPVMDRLCDHMIKQHDCQTNVREVQFFADRDFENFLLKVEKATLGRDPEDAIRKKSRAGSSQLFVCNYMNKGRQKMAELVEVGIVGLSERPLEVCTAFVQKTHGYECIRVKYCDQHIHYDGNIGFRVPIAVKRRLFEMSFKRLPIPCMQIMLGLEAEQLLPHPTRFEEKLKNLSHVEIIELLQIINASLRKHQEVEPRGKKVPIKFETIKSSEGSQTLMVKRVTPPKKEHMDYDEPDPNIPSTSAQALGYNPDDDEGDDVPMMSREEEVLDDETGEESVMTEDCDGMMEDNMCSFLVFFCWRKNGEK | not soluble
MNLFFDTELGKQQNKATHKIRVMSEAWLEKNGYCPCCGSKPMQRFANNKPVADLFCPNCHEQYELKSKNQKTIGNSVPDGAYHTMLERIRSDTNPNFFFLAYKKADYSIRQLVLVPKHFITPDMIIPRNKGIKNRPNHIMCSINLAPLPESGKIFLIDNSRIIEPETVLKKWQSNLFLRNQNAERKGWLLAVMKCIDQLPEEFTLSQMYEFENKLSIQFPQNNHIRDKIRQQLQILRDQNTIEFIGRGLYKKS | not soluble
MNQHNTRLIRLPEVLHRTGYGKAWIYHLINQNRFPSPVKIGARSVAFIESEVDEWIQLTIENSRKHVA | soluble
MSEPAVVSILDTDLYKLTMLQAVLEHYPDAQVSYKYTNRSPKMALNQEAYNWLREQIRGLRNLHLLPEEEQWLRKNCPYLKESFYEFMHEFEFDPENSISLNYDSETKDLSIFIHGLWKNTIFYEIPLLALVSESYFKFVDKDWSPEGQFEKAYEKGKRLIRAGCAFTDFGTRRRRDPHTQEIVLQGLMKAQEDFKGPGSFLGTSNVYFAAKYNLNVSGTVAHEWYMGIAAITQNYKQANRIASLKWVQTFGTSLLIALTDTFSTDVFLKSFTANSADDLANVFHGVRQDSGCAEEYIEKVVKHYKSIGVDPSTKVIVHSDALNVDRCIELYKYCEKCGIKSAFGIGTNLTSDFQKVSNPSEVSKPMNIVIKLFSAEGTKAVKISDDIMKNTGDRDAVIQAKHQLCLPIA | soluble
MKAASYGVPFQSHFGLISTIRGNDGLPRVVVFFQSHFGLISTVKIVEVLEKDEALSIPFWSDFNCHLQMDQRIRLAFFQSHFGLISTGTLQTSGTNANFLSIPFWSDFNLELLKRIKKTKMLFQSHFGLISTRNMVWGRSELQRAIFQSHFGLISTQSSQLTMPVKMQTFNPILV | not soluble
QKRAWITAPVALREGEDLSKKNPIAKIHSDLAEERGLKITYKYTGKGITEPPFGIFVFNKDTGELNVTSILDREETPFFLLTGYALDARGNNVEKPLELRIKVLDINDNEPVFTQD | soluble
SMPEQSNDYRVVVFGAGGVGKSSLVLRFVKGTFRDTYIPTIEDTYRQVISCDKSVCTLQITDTTGSHQFPAMQRLSISKGHAFILVFSVTSKQSLEELGPIYKLIVQIKGSVEDIPVMLVGNKCDETQREVDTREAQAVAQEWKCAFMETSAKMNYNVKELFQELLTLETRRNMSLNIDGKRSGKQKRTDRVKGKCTLM | soluble
AMDFPQQLEACVKQANQALSRFIAPLPFQNTPVVETMQYGALLGGKRLRPFLVYATGHMFGVSTNTLDAPAAAVECIHAYSLIHDDLPAMDDDDLRRGLPTCHVKFGEANAILAGDALQTLAFSILSDADMPEVSDRDRISMISELASASGIAGMCGGQALDLDAEGKHVPLDALERIHRHKTGALIRAAVRLGALSAGDKGRRALPVLDKYAESIGLAFQVQDDILDVVGDTATLGKRQGADQQLGKSTYPALLGLEQARKKARDLIDDARQSLKQLAEQSLDTSALEALADYIIQRNK | soluble
MSLSTLQDLEKTLWATADKMRANMDPAEYKHIVLGLIFLKYISDSFAGRRAELERKFSDAGDDYYLGGDDPTYLASELEERDYYKEVNVFWVPEPARWESLRAAAKQVDIGKRIDDALADIEAENPQLKNILDKRYARAQLPDGKLGELVDMISIIGFSSDANKARDLLGQVYEYFLGQFASAEGKRGGQFYTPASIVKTLVAVLNPHHGKVYDPCCGSGGMFVQSEKFIEAHGGKLGDVSIYGQESNPTTWRLAAMNLAIRGMDFNLGKEPADSFIRNQHSDLRADFVLANPPFNISDWWHGSLDGDSRWVYGTPPQGNANYAWLQHMLFHLKSSGRAGIVLANGSMSSSQNSEGDIRRAMVEADVVEVMVALPGQLFFNTQIPACLWFLAKQKNKRPGEVLFIDARKLGTNISRVQIELLDSDIESIAQTVANWRGVPLEVDGEIAEYADVAGFCRSVPLAEIAEHGHVLTPGRYVGAEAVEEGHHHHHH | not soluble
METQIHQLEQEAYTAVLRAFKAQSDAISWEKESLITELRKELRVSDDEHRELLSRVNKDDTIQRIRDWRQGGASQITRHATIQPFDVLPSPTFSAARKKQKTFPSYNPSIGATGNRSFNNRLVSSGISGNESAEALIGRKVWTKWPEDNHFYEAIITQYNADEGRHALVYDIHAANETWEWVDLKEIPPEDIRWDGEESGVALNIGHGSASFRGNRRGQIHGGRGRGPRIHQPRRELVPPPTQQNGSGGRRTSSDDIELFNTDSLVKEVERVFDSTHPDPLELDKAKKMLKEHEQALIAAIARLADTSDGEMDGDPPYSHDHPMPQG | not soluble

Reference: the DeepSol protein solubility set
